Reference: patent US20220041674A1 (published 2022)
Non-standard residues stand in square brackets, D forms with d. Nal = naphthylalanine

B1: FC131, c[yRRNaIG] (R2) (peptide)
peptide: cyclo([dY]RR[Nal]G)
notes: stands under the natLu column heads although it carries no chelator; also called cyclo(Gly-Nal-Arg-Arg-D-Tyr)

What was measured:
[1] = biological target: human chemokine receptor 4 (CXCR4) (human) (UniProt P61073); experiment: competitive radioligand binding on Jurkat cells, [125I]FC131 0.1 nM, 2 h RT
[2] = biological target: human chemokine receptor 4 (CXCR4) (human) (UniProt P61073); experiment: cell-based or functional assay
[3] = biological target: human chemokine receptor 4 (CXCR4) (human) (UniProt P61073); experiment: competitive radioligand binding on Jurkat cells (400.000 cells/sample), [125I]FC-131
[4] = biological target: T1, murine chemokine receptor 4 (CXCR4) (murine, UniProt P70658 1-359); experiment: competitive radioligand binding on Eµ-Myc1080 mouse B-cell lymphoma cells, [125I]CPCR4.3
T1 construct: whole, on cells; receptor present on whole cells; also called mCXCR4; mouse CXCR4
T1 sequence (P70658 whole entry): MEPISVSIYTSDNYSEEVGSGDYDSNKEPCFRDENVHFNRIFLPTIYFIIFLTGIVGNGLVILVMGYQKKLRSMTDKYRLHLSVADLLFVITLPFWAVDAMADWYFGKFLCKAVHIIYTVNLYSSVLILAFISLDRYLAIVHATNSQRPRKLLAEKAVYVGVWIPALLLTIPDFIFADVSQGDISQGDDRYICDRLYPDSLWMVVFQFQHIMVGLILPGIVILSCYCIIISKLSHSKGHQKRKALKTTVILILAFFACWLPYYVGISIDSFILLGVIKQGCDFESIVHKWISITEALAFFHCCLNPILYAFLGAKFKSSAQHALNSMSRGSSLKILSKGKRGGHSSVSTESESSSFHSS

Chain of human chemokine receptor 4 (CXCR4) (human) (P61073 whole entry): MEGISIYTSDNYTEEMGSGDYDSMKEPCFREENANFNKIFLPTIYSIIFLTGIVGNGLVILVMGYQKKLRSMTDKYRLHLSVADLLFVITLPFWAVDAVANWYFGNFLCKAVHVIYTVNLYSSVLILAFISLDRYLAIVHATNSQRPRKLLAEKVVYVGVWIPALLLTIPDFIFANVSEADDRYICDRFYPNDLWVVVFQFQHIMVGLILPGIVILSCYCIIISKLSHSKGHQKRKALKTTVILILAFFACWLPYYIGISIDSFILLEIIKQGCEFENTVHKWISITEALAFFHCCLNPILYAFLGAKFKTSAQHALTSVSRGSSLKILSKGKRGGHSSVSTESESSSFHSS

Molecule | IC50 [1] [nM] | IC50 [3] [nM] | other results
^natGa-pentixafor, natGa complex of cyclo(D-Tyr1-D-[NMe]Orn2(AMBS-DOTA)-Arg3-Nal4-Gly5) (peptide) | 24.8 | – | –
^natLu-pentixafor, natLu complex of cyclo(D-Tyr1-D-[NMe]Orn2(AMBS-DOTA)-Arg3-Nal4-Gly5) (peptide) | 41 | – | –
^natLu-pentixather, natLu complex of cyclo(D-3-iodo-Tyr1-D-[NMe]Orn2(AMBS-DOTA)-Arg3-Nal4-Gly5) (peptide) | – | – | specific internalized activity (hCXCR4+ Chem 1 cells, 37 °C, 1.0 nM peptide, 60 min) [2]: 3.8%
cyclo[-yorn′(AMBF3(methyl(1H-1,2,3-triazol-4-yl)-rG-4-amino)benzoyl-)RNaIG] (F3b) (peptide) | – | 2.4 | –
cyclo[i-yorn′(AMBF3(methyl(1H-1,2,3-triazol-4-yl)4-amino)benzoyl-)RNaIG] (F1) (peptide) | – | 134 | –
cyclo[i-yorn′(AMBF3(methyl(1H-1,2,3-triazol-4-yl)-kG-4-amino)benzoyl-)RNaIG] (F4) (peptide) | – | 3.8 | –
cyclo[i-yorn′(AMBF3(methyl(1H-1,2,3-triazol-4-yl)-vG-4-amino)benzoyl-)RNaIG] (F2) (peptide) | – | 65.2 | –
cyclo[i-yorn′([natBi]DOTA-kG-(4-amino)benzoyl-)RNaIG ([natBi]P3) (peptide) | – | 38 | –
cyclo[i-yorn′([natGa]DOTA-dapG-(4-amino)benzoyl-)RNaIG ([natGa]P2) (peptide) | 3.6 | 3.6 | –
cyclo[i-yorn′([natGa]DOTA-kG-(4-amino)benzoyl-)RNaIG ([natGa]P3) (peptide) | 2.4 | 2.4 | –
cyclo[i-yorn′([natLu]DOTA-d-(4-amino)benzoyl-)RNaIG ([natLu]P1) (peptide) | 106 | 106 | –
cyclo[i-yorn′([natLu]DOTA-kG-(4-amino)benzoyl-)RNaIG ([natLu]P3) (peptide) | 3.6 | 3.6 | –
cyclo[i-yorn′([natLu]DOTA-ra-(4-amino)benzoyl-)RNaIG ([natLu]P5) (peptide) | – | – | specific internalized activity (hCXCR4+ Chem 1 cells, 37 °C, 1.0 nM peptide, 60 min) [2]: 36.7%
cyclo[i-yorn′([natY]DOTA-dapG-(4-amino)benzoyl-)RNaIG ([natY]P2) (peptide) | – | 4.1 | –
cyclo[i-yorn′([natY]DOTA-kG-(4-amino)benzoyl-)RNaIG ([natY]P3) (peptide) | – | 2.4 | –
cyclo[yorn′([natGa]DOTA-kG-(4-amino)benzoyl-)RNaIG ([natGa]P3b) (peptide) | 8.9 | 8.9 | –
cyclo[yorn′([natGa]DOTA-rG-(4-amino)benzoyl-)RNaIG ([natGa]P4b) (peptide) | 9.7 | 9.7 | –
cyclo[yorn′([natGa]DOTA-ra-(4-amino)benzoyl-)RNaIG ([natGa]P5b) (peptide) | 0.4 | 0.4 | –
cyclo[yorn′([natLu]DOTA-kG-(4-amino)benzoyl-)RNaIG ([natLu]P3b) (peptide) | 8 | 8 | –
cyclo[yorn′([natLu]DOTA-rG-(4-amino)benzoyl-)RNaIG ([natLu]P4b) (peptide) | 5.4 | 5.4 | –
cyclo[yorn′([natLu]DOTA-ra-(4-amino)benzoyl-)RNaIG ([natLu]P5b) (peptide) | – | – | specific internalized activity (hCXCR4+ Chem 1 cells, 37 °C, 1.0 nM peptide, 60 min) [2]: 21.2%
cyclo[yorn′([natY]DOTA-kG-(4-amino)benzoyl-)RNaIG ([natY]P3b) (peptide) | – | 6.3 | –
cyclo[yorn′([natY]DOTA-rG-(4-amino)benzoyl-)RNaIG ([natY]P4b) (peptide) | – | 8.7 | –
cyclo[yorn′([natY]DOTA-ra-(4-amino)benzoyl-)RNaIG ([natY]P5b) (peptide) | – | 0.3 | –
B1 | – | – | IC50 [4]: 119 nM
